Values of other authors as cited in paper PMC2803043.

Target: Frizzled (Drosophila melanogaster) (UniProt P18537)
Chain of UniProt P18537 (P18537 19-581): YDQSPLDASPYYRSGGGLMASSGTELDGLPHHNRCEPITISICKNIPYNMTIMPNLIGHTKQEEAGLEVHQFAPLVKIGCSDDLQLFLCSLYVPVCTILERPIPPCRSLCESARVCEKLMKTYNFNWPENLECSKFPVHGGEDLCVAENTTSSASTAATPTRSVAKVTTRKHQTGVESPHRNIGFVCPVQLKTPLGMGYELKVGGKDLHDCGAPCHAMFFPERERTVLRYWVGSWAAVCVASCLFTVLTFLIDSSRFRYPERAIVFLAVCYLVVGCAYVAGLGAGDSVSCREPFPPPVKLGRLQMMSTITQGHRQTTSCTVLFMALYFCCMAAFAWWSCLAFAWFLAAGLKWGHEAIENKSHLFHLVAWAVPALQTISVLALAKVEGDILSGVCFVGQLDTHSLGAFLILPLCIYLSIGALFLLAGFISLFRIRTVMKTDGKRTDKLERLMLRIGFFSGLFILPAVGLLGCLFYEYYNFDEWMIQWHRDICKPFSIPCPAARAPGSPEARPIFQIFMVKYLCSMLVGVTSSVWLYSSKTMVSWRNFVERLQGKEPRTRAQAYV

Kd: 10 µM
Substance: Dishevelled PDZ (from UniProt P51140)
